Assay results taken from PMC11480844 (2024).

B1: H2-Kb / Ed28 (parent complex)
chain 1: AQSVTQPDARVTVSEGASLQLRCKYSYFGTPYLFWYVQYPRQGLQLLLKYYPGDPVVQGVNGFEAEFSKSNSSFHLRKASVHWSDWAVYFCAVSPGSGGKLTLGAGTRLQVNL
chain 2: DSGVVQSPRHIIKEKGGRSVLTCIPISGHSNVVWYQQTLGKELKFLIQHYEKVERDKGFLPSRFSVQQFDDYHSEMNMSALELEDSAMYFCASSPRASDYTFGSGTRLLVI
chain 3: not shown
chain 4: IQKTPQIQVYSRHPPENGKPNILNCYVTQFHPPHIEIQMLKNGKKIPKVEMSDMSFSKDWSFYILAHTEFTPTETDTYACRVKHDSMAEPKTVYWDRDM
chain 5: SIINFEKL
B2: H2-Kb / F4 (parent complex)
chain 1: QQQVRQSPQSLTVWEGETAILNCSYEDSTFNYFPWYQQFPGEGPALLISIRSVSDKKEDGRFTIFFNKREKKLSLHITDSQPGDSATYFCAAMSNYNVLYFGSGTKLTVEP
chain 2: ETAVFQTPNYHVTQVGNEVSFNCKQTLGHDTMYWYKQDSKKLLKIMFSYNNKQLIVNETVPRRFSPQSSDKAHLNLRIKSVEPEDSAVYLCASSARQNSPLYFAAGTRLTVT
chain 3: not shown
chain 4: B1 chain 4
chain 5: SIINFEKL

Variants of: B1
Test: % of reporter cells activated (NFAT-GFP), raw
Note: test concentration or dose not given here.

Variant | ratio to parent
chain 5 F5I | 0.388
chain 5 F5Q | 0.455
chain 5 F5S | 0.867
chain 5 I2T | 1.34
chain 5 E6M | 0.0743

Further lines, results first:

ratio to parent | Variant
0.013 | chain 5 K7E
0.00775 | chain 5 N4W
0.00642 | chain 5 N4G
0.0271 | chain 5 N4S
0.594 | chain 5 L8N
0.902 | chain 5 L8Y
0.908 | chain 5 S1M

Variants of: B2
Test: % of reporter cells activated (NFAT-GFP), raw

Variant | ratio to parent
chain 5 K7A | 0.222
chain 5 K7C | 0.377
chain 5 F5R | 0.285
chain 5 F5Q | 0.517
chain 5 F5A | 0.967
chain 5 F5Y | 0.526
chain 5 F5L | 0.554
chain 5 F5I | 1.36
chain 5 F5E | 0.0661
chain 5 F5K | 0.109
chain 5 F5H | 1.01
chain 5 F5W | 0.083
chain 5 F5V | 1.38
chain 5 F5M | 1.29
chain 5 F5T | 1.19
chain 5 F5N | 0.225
chain 5 F5S | 0.767
chain 5 E6Q | 0.0246
chain 5 E6V | 0.0232
chain 5 E6I | 0.00942
chain 5 E6H | 0.0263
chain 5 E6W | 0.113
chain 5 E6C | 0.537

Variant | ratio to parent
chain 5 E6M | 0.0214
chain 5 E6R | 0.0897
chain 5 E6G | 0.0237
chain 5 E6T | 0.0219
chain 5 E6L | 0.0121
chain 5 E6D | 0.987
chain 5 E6N | 0.0563
chain 5 E6K | 0.118
chain 5 E6P | 0.0487
chain 5 E6F | 0.033
chain 5 E6Y | 0.0161
chain 5 E6S | 0.0357
chain 5 E6A | 0.05
chain 5 I2W | 0.641
chain 5 I2P | 0.16
chain 5 I2G | 1.45
chain 5 I2C | 2.17
chain 5 I2K | 0.0728
chain 5 I2T | 0.773
chain 5 I2L | 1.25
chain 5 I2R | 0.393
chain 5 I2Q | 0.181
chain 5 I2E | 0.807

Variant | ratio to parent
chain 5 I2F | 0.955
chain 5 I2S | 1.05
chain 5 I2Y | 0.108
chain 5 I2D | 0.406
chain 5 I2H | 0.0964
chain 5 I3M | 0.125
chain 5 I3H | 0.0214
chain 5 I3E | 0.0777
chain 5 I3Y | 0.517
chain 5 I3Q | 0.0638
chain 5 I3C | 0.558
chain 5 I3P | 0.083
chain 5 I3W | 0.358
chain 5 I3L | 2.05
chain 5 I3S | 0.106
chain 5 I3F | 1
chain 5 I3T | 0.204
chain 5 I3K | 0.262
chain 5 I3G | 0.0625
chain 5 I3D | 0.0344
chain 5 I3V | 1.74
chain 5 I3N | 0.188
chain 5 I3R | 0.0634

Further lines, results first:

ratio to parent | Variant
0.101 | chain 5 K7D
0.0549 | chain 5 K7P
0.105 | chain 5 K7E
0.771 | chain 5 K7I
0.234 | chain 5 K7G
1.03 | chain 5 K7Y
0.726 | chain 5 K7F
0.261 | chain 5 K7S
1.35 | chain 5 K7H
1.23 | chain 5 K7R
0.254 | chain 5 K7N
0.85 | chain 5 K7L
0.927 | chain 5 K7V
0.628 | chain 5 K7T
0.417 | chain 5 K7Q
0.517 | chain 5 K7W
0.651 | chain 5 K7M
0.395 | chain 5 L8A
0.47 | chain 5 L8N
0.515 | chain 5 L8S
0.48 | chain 5 L8P
0.312 | chain 5 L8D
0.903 | chain 5 L8I

ratio to parent | Variant
0.898 | chain 5 L8Y
0.457 | chain 5 L8V
0.355 | chain 5 L8E
0.564 | chain 5 L8F
0.352 | chain 5 L8K
0.564 | chain 5 L8G
0.723 | chain 5 L8M
0.491 | chain 5 L8W
0.759 | chain 5 L8Q
0.783 | chain 5 L8C
0.276 | chain 5 L8R
0.0362 | chain 5 N4V
0.0594 | chain 5 N4L
0.0339 | chain 5 N4F
0.0317 | chain 5 N4S
0.0246 | chain 5 N4P
0.0205 | chain 5 N4I
0.0308 | chain 5 N4A
0.0299 | chain 5 N4Y
0.225 | chain 5 N4G
0.0344 | chain 5 N4H
0.0402 | chain 5 N4T
0.0522 | chain 5 N4C

ratio to parent | Variant
0.0116 | chain 5 N4Q
0.0277 | chain 5 N4R
0.021 | chain 5 N4M
0.0277 | chain 5 N4D
0.0286 | chain 5 N4K
0.0183 | chain 5 S1W
0.0232 | chain 5 S1T
0.0438 | chain 5 S1P
0.0189 | chain 5 S1D
0.0254 | chain 5 S1C
0.0638 | chain 5 S1K
0.188 | chain 5 S1G
0.0344 | chain 5 S1Q
0.0263 | chain 5 S1L
0.0348 | chain 5 S1F
0.029 | chain 5 S1E
0.0268 | chain 5 S1M
0.0768 | chain 5 S1Y
0.0174 | chain 5 S1I
0.0638 | chain 5 S1V
0.0509 | chain 5 S1H
0.0272 | chain 5 S1A
0.0308 | chain 5 S1N
